# From patent US20250218531A1 (ABSCI, published 2025)
# Molecular target: human epidermal growth factor receptor 2 (HER2) extracellular domain (human, UniProt P04626 23-629)
# Assay: SPR
Binder,Kd,log(KD (M))
"Trastuzumab HCDR3 variant AANAAIFAAWGA (Fab, V domains shown) VH: EVQLVESGGGLVQPGGSLRLSCAASGFNIKDTYIHWVRQAPGKGLEWVARIYPTNGYTRYADSVKGRFTISADTSKNTAYLQMNSLRAEDTAVYYCAANAAIFAAWGAWGQGTLVTVSS VL: not shown",43.1 nM,-7.37 log(M)
"Trastuzumab HCDR3 variant ALYKRYDYAFGY (Fab, V domains shown) VH: EVQLVESGGGLVQPGGSLRLSCAASGFNIKDTYIHWVRQAPGKGLEWVARIYPTNGYTRYADSVKGRFTISADTSKNTAYLQMNSLRAEDTAVYYCALYKRYDYAFGYWGQGTLVTVSS VL: not shown",86.6 nM,-7.06 log(M)
"Trastuzumab HCDR3 variant ARSGEGYYAFDY (Fab, V domains shown) VH: EVQLVESGGGLVQPGGSLRLSCAASGFNIKDTYIHWVRQAPGKGLEWVARIYPTNGYTRYADSVKGRFTISADTSKNTAYLQMNSLRAEDTAVYYCARSGEGYYAFDYWGQGTLVTVSS VL: not shown",210 nM,-6.68 log(M)
"Trastuzumab HCDR3 variant ARNYVYWYGMTV (Fab, V domains shown) VH: EVQLVESGGGLVQPGGSLRLSCAASGFNIKDTYIHWVRQAPGKGLEWVARIYPTNGYTRYADSVKGRFTISADTSKNTAYLQMNSLRAEDTAVYYCARNYVYWYGMTVWGQGTLVTVSS VL: not shown",27.5 nM,-7.56 log(M)
"Trastuzumab HCDR3 variant ARGYYYYFYYNY (Fab, V domains shown) VH: EVQLVESGGGLVQPGGSLRLSCAASGFNIKDTYIHWVRQAPGKGLEWVARIYPTNGYTRYADSVKGRFTISADTSKNTAYLQMNSLRAEDTAVYYCARGYYYYFYYNYWGQGTLVTVSS VL: not shown",30.3 nM,-7.52 log(M)
"Trastuzumab HCDR3 variant ARGYYYYQWYYY (Fab, V domains shown) VH: EVQLVESGGGLVQPGGSLRLSCAASGFNIKDTYIHWVRQAPGKGLEWVARIYPTNGYTRYADSVKGRFTISADTSKNTAYLQMNSLRAEDTAVYYCARGYYYYQWYYYWGQGTLVTVSS VL: not shown",33.6 nM,-7.47 log(M)
"Trastuzumab HCDR3 variant ARASWNWYGGDY (Fab, V domains shown) VH: EVQLVESGGGLVQPGGSLRLSCAASGFNIKDTYIHWVRQAPGKGLEWVARIYPTNGYTRYADSVKGRFTISADTSKNTAYLQMNSLRAEDTAVYYCARASWNWYGGDYWGQGTLVTVSS VL: not shown",92.9 nM,-7.03 log(M)
"Trastuzumab HCDR3 variant AAYGPQGYAFAV (Fab, V domains shown) VH: EVQLVESGGGLVQPGGSLRLSCAASGFNIKDTYIHWVRQAPGKGLEWVARIYPTNGYTRYADSVKGRFTISADTSKNTAYLQMNSLRAEDTAVYYCAAYGPQGYAFAVWGQGTLVTVSS VL: not shown",33.8 nM,-7.47 log(M)
"Trastuzumab HCDR3 variant ARGYFGGYYFAY (Fab, V domains shown) VH: EVQLVESGGGLVQPGGSLRLSCAASGFNIKDTYIHWVRQAPGKGLEWVARIYPTNGYTRYADSVKGRFTISADTSKNTAYLQMNSLRAEDTAVYYCARGYFGGYYFAYWGQGTLVTVSS VL: not shown",130 nM,-6.88 log(M)
"Trastuzumab HCDR3 variant AQSGSYFYPFSY (Fab, V domains shown) VH: EVQLVESGGGLVQPGGSLRLSCAASGFNIKDTYIHWVRQAPGKGLEWVARIYPTNGYTRYADSVKGRFTISADTSKNTAYLQMNSLRAEDTAVYYCAQSGSYFYPFSYWGQGTLVTVSS VL: not shown",83.2 nM,-7.08 log(M)
"Trastuzumab HCDR3 variant ARSEWFWGSFAY (Fab, V domains shown) VH: EVQLVESGGGLVQPGGSLRLSCAASGFNIKDTYIHWVRQAPGKGLEWVARIYPTNGYTRYADSVKGRFTISADTSKNTAYLQMNSLRAEDTAVYYCARSEWFWGSFAYWGQGTLVTVSS VL: not shown",114 nM,-6.94 log(M)
"Trastuzumab HCDR3 variant ARHGSYYYDFDF (Fab, V domains shown) VH: EVQLVESGGGLVQPGGSLRLSCAASGFNIKDTYIHWVRQAPGKGLEWVARIYPTNGYTRYADSVKGRFTISADTSKNTAYLQMNSLRAEDTAVYYCARHGSYYYDFDFWGQGTLVTVSS VL: not shown",56.6 nM,-7.25 log(M)
"Trastuzumab HCDR3 variant AGYWYGSYSFDY (Fab, V domains shown) VH: EVQLVESGGGLVQPGGSLRLSCAASGFNIKDTYIHWVRQAPGKGLEWVARIYPTNGYTRYADSVKGRFTISADTSKNTAYLQMNSLRAEDTAVYYCAGYWYGSYSFDYWGQGTLVTVSS VL: not shown",35.4 nM,-7.45 log(M)
"Trastuzumab HCDR3 variant AAYWYGVYVFRY (Fab, V domains shown) VH: EVQLVESGGGLVQPGGSLRLSCAASGFNIKDTYIHWVRQAPGKGLEWVARIYPTNGYTRYADSVKGRFTISADTSKNTAYLQMNSLRAEDTAVYYCAAYWYGVYVFRYWGQGTLVTVSS VL: not shown",113 nM,-6.95 log(M)
"Trastuzumab HCDR3 variant AKYAFGGWSYSP (Fab, V domains shown) VH: EVQLVESGGGLVQPGGSLRLSCAASGFNIKDTYIHWVRQAPGKGLEWVARIYPTNGYTRYADSVKGRFTISADTSKNTAYLQMNSLRAEDTAVYYCAKYAFGGWSYSPWGQGTLVTVSS VL: not shown",37.7 nM,-7.42 log(M)
"Trastuzumab HCDR3 variant AKYGRSDYGFEH (Fab, V domains shown) VH: EVQLVESGGGLVQPGGSLRLSCAASGFNIKDTYIHWVRQAPGKGLEWVARIYPTNGYTRYADSVKGRFTISADTSKNTAYLQMNSLRAEDTAVYYCAKYGRSDYGFEHWGQGTLVTVSS VL: not shown",133 nM,-6.88 log(M)

Binder,Kd,log(KD (M))
"Trastuzumab HCDR3 variant ARASWYWYGGDK (Fab, V domains shown) VH: EVQLVESGGGLVQPGGSLRLSCAASGFNIKDTYIHWVRQAPGKGLEWVARIYPTNGYTRYADSVKGRFTISADTSKNTAYLQMNSLRAEDTAVYYCARASWYWYGGDKWGQGTLVTVSS VL: not shown",37.8 nM,-7.42 log(M)
"Trastuzumab HCDR3 variant AASADFMYGVIR (Fab, V domains shown) VH: EVQLVESGGGLVQPGGSLRLSCAASGFNIKDTYIHWVRQAPGKGLEWVARIYPTNGYTRYADSVKGRFTISADTSKNTAYLQMNSLRAEDTAVYYCAASADFMYGVIRWGQGTLVTVSS VL: not shown",39.6 nM,-7.4 log(M)
"Trastuzumab HCDR3 variant ARMSYYFYYMDY (Fab, V domains shown) VH: EVQLVESGGGLVQPGGSLRLSCAASGFNIKDTYIHWVRQAPGKGLEWVARIYPTNGYTRYADSVKGRFTISADTSKNTAYLQMNSLRAEDTAVYYCARMSYYFYYMDYWGQGTLVTVSS VL: not shown",48.9 nM,-7.31 log(M)
"Trastuzumab HCDR3 variant ARHHYSGYFHDV (Fab, V domains shown) VH: EVQLVESGGGLVQPGGSLRLSCAASGFNIKDTYIHWVRQAPGKGLEWVARIYPTNGYTRYADSVKGRFTISADTSKNTAYLQMNSLRAEDTAVYYCARHHYSGYFHDVWGQGTLVTVSS VL: not shown",148 nM,-6.83 log(M)
"Trastuzumab HCDR3 variant ARWLYYGYYFDY (Fab, V domains shown) VH: EVQLVESGGGLVQPGGSLRLSCAASGFNIKDTYIHWVRQAPGKGLEWVARIYPTNGYTRYADSVKGRFTISADTSKNTAYLQMNSLRAEDTAVYYCARWLYYGYYFDYWGQGTLVTVSS VL: not shown",28 nM,-7.55 log(M)
"Trastuzumab HCDR3 variant ARSTDYWHASQY (Fab, V domains shown) VH: EVQLVESGGGLVQPGGSLRLSCAASGFNIKDTYIHWVRQAPGKGLEWVARIYPTNGYTRYADSVKGRFTISADTSKNTAYLQMNSLRAEDTAVYYCARSTDYWHASQYWGQGTLVTVSS VL: not shown",179 nM,-6.75 log(M)
"Trastuzumab HCDR3 variant ARGYWWLYGFAY (Fab, V domains shown) VH: EVQLVESGGGLVQPGGSLRLSCAASGFNIKDTYIHWVRQAPGKGLEWVARIYPTNGYTRYADSVKGRFTISADTSKNTAYLQMNSLRAEDTAVYYCARGYWWLYGFAYWGQGTLVTVSS VL: not shown",172 nM,-6.77 log(M)
"Trastuzumab HCDR3 variant ALLYGYYPSGVG (Fab, V domains shown) VH: EVQLVESGGGLVQPGGSLRLSCAASGFNIKDTYIHWVRQAPGKGLEWVARIYPTNGYTRYADSVKGRFTISADTSKNTAYLQMNSLRAEDTAVYYCALLYGYYPSGVGWGQGTLVTVSS VL: not shown",262 nM,-6.58 log(M)
"Trastuzumab HCDR3 variant ARTTISSSSYTG (Fab, V domains shown) VH: EVQLVESGGGLVQPGGSLRLSCAASGFNIKDTYIHWVRQAPGKGLEWVARIYPTNGYTRYADSVKGRFTISADTSKNTAYLQMNSLRAEDTAVYYCARTTISSSSYTGWGQGTLVTVSS VL: not shown",248 nM,-6.61 log(M)
"Trastuzumab HCDR3 variant ARGYYHYYHYQY (Fab, V domains shown) VH: EVQLVESGGGLVQPGGSLRLSCAASGFNIKDTYIHWVRQAPGKGLEWVARIYPTNGYTRYADSVKGRFTISADTSKNTAYLQMNSLRAEDTAVYYCARGYYHYYHYQYWGQGTLVTVSS VL: not shown",95.1 nM,-7.02 log(M)
"Trastuzumab HCDR3 variant ARSYYGAYYFDY (Fab, V domains shown) VH: EVQLVESGGGLVQPGGSLRLSCAASGFNIKDTYIHWVRQAPGKGLEWVARIYPTNGYTRYADSVKGRFTISADTSKNTAYLQMNSLRAEDTAVYYCARSYYGAYYFDYWGQGTLVTVSS VL: not shown",202 nM,-6.7 log(M)
"Trastuzumab HCDR3 variant ARNYYGSYYFDY (Fab, V domains shown) VH: EVQLVESGGGLVQPGGSLRLSCAASGFNIKDTYIHWVRQAPGKGLEWVARIYPTNGYTRYADSVKGRFTISADTSKNTAYLQMNSLRAEDTAVYYCARNYYGSYYFDYWGQGTLVTVSS VL: not shown",120 nM,-6.92 log(M)
"Trastuzumab HCDR3 variant AKYGTSNYGFSH (Fab, V domains shown) VH: EVQLVESGGGLVQPGGSLRLSCAASGFNIKDTYIHWVRQAPGKGLEWVARIYPTNGYTRYADSVKGRFTISADTSKNTAYLQMNSLRAEDTAVYYCAKYGTSNYGFSHWGQGTLVTVSS VL: not shown",27.6 nM,-7.56 log(M)
"Trastuzumab HCDR3 variant ARFPVSSYAYGF (Fab, V domains shown) VH: EVQLVESGGGLVQPGGSLRLSCAASGFNIKDTYIHWVRQAPGKGLEWVARIYPTNGYTRYADSVKGRFTISADTSKNTAYLQMNSLRAEDTAVYYCARFPVSSYAYGFWGQGTLVTVSS VL: not shown",36.2 nM,-7.44 log(M)
"Trastuzumab HCDR3 variant AKYGISDYGFDH (Fab, V domains shown) VH: EVQLVESGGGLVQPGGSLRLSCAASGFNIKDTYIHWVRQAPGKGLEWVARIYPTNGYTRYADSVKGRFTISADTSKNTAYLQMNSLRAEDTAVYYCAKYGISDYGFDHWGQGTLVTVSS VL: not shown",207 nM,-6.68 log(M)
"Trastuzumab HCDR3 variant ARFLYGSYYFDY (Fab, V domains shown) VH: EVQLVESGGGLVQPGGSLRLSCAASGFNIKDTYIHWVRQAPGKGLEWVARIYPTNGYTRYADSVKGRFTISADTSKNTAYLQMNSLRAEDTAVYYCARFLYGSYYFDYWGQGTLVTVSS VL: not shown",135 nM,-6.87 log(M)
